Data: US20120034693A1

Experiments:
[1] = molecular target: mutant A3G D128K, cmyc-tagged, expressed from pD3GFPD128K / D3GFPD128K (human) (UniProt Q9HC16); experiment: cell-based or functional assay
[2] = molecular target: wild type Apolipoprotein B mRNA-editing enzyme-catalytic polypeptide-like 3G (A3G), cmyc-tagged, expressed from pD3GFP / D3GFP (human) (UniProt Q9HC16); experiment: cell-based or functional assay

Substance: HIV-1 viral infectivity factor (Vif), expressed from the helper plasmid pcHelp
- infectivity of HIV-GFP virus produced from vector-carrying 293T cells in the presence of HIV-1 Vif, percent of control [1]: 1 % of control
- inhibition of HIV-GFP replication by the A3G-expressing plasmid in the presence of HIV-1 Vif (GFP flow cytometry of infected 293T cells) [1]: 90%
- infectivity of HIV-GFP virus produced from vector-carrying 293T cells in the presence of HIV-1 Vif, percent of control [2]: 89 % of control
